In series [1] the target is T1, GUN1-VP64 (Arabidopsis thaliana, UniProt Q9SIC9 SEQ:234-620).
T1 chain: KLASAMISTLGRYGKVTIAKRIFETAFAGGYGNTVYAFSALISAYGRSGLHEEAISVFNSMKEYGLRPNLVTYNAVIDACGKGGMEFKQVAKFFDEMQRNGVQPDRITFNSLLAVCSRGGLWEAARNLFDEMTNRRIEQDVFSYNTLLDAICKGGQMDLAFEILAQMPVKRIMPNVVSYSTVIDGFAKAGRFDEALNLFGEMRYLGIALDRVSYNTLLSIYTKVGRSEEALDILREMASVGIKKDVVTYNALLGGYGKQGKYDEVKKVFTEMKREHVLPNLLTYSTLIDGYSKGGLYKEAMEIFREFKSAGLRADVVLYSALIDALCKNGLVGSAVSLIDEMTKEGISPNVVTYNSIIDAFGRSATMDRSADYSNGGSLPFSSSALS
Description: cell_activity; HEK293T dual luciferase, 4x target, vs pminCMV-luc2. The procedure: (§1) The PPR-VP64 expression vector prepared in the section 1, the firefly luciferase expression vector prepared in the section 2, and the pRL-CMV vector (expression vector for Renilla luciferase, Promega) as a reference were introduced by using Lipofectamine LTX (Life Technologies). The DMEM medium (25 μl) was added to each well of a 96-well plate, and a mixture containing the PPR-VP64 expression vector (400 ng), firefly luciferase expression vector (100 ng), and pRL-CMV vector (20 ng) was further added. Then, a mixture of the DMEM medium (25 μl) and Lipofectamine LTX (0.7 μl) was added to each well, the plate was left standing at room temperature for 30 minutes, then 6×10⁴ of the HEK293 T cells suspended in the DMEM medium containing 15% fetal bovine serum (100 μl) were added, and the cells were cultured at 37° C. in a CO₂ incubator for 24 hours.
(§2) The luciferase activity was compared for the cases of introducing pTac2-VP64 or GUN1-VP64 together with pminCMV-luc2 for a negative control, or the reporter vector having 4 or 8 target sequences (table mentioned below, FIG. 6). The comparison of the activity was performed on the basis of standardized scores obtained by dividing the measured values obtained with Fluc (firefly luciferase) with the measured value obtained with Rluc (Renilla luciferase) as the reference (Fluc/Rluc). […]

Series [2] deals with T1, GUN1-VP64. The experiment in a line: cell_activity; HEK293T dual luciferase, 8x target, vs pminCMV-luc2. Here is the method:
as §1, §2

The target of series [3] is T2, pTac2-VP64 (Arabidopsis thaliana, UniProt Q9S7Q2 SEQ:106-632).
T2 chain: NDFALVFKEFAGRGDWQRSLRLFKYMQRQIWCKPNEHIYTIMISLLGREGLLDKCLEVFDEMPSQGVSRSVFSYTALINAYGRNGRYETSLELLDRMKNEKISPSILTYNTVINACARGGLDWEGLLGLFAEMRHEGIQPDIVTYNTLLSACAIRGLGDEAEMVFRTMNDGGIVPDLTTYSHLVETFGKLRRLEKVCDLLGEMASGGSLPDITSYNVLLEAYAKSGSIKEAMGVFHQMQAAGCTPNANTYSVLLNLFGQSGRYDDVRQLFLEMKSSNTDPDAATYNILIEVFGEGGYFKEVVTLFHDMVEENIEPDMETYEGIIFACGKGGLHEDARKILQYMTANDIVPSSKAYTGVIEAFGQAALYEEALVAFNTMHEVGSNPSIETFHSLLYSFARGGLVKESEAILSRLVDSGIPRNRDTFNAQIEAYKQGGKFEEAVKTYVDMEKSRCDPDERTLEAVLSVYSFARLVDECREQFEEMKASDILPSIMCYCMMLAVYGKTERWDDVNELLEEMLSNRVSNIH
Description: cell_activity; HEK293T dual luciferase, 4x target, vs pminCMV-luc2. Here is the method:
as §1, §2

For series [4], the target named is T2, pTac2-VP64. Description: cell_activity; HEK293T dual luciferase, 8x target, vs pminCMV-luc2. Here is the method: as §1, §2

B1: GUN1 target (4x in reporter) (dsDNA)
DNA 1: AATTTGTCGAT
DNA 2: ATCGACAAATT
For B1, the activity with GUN1-VP64 [1] worked out at 2.88 fold activation.

B2: GUN1 target (8x in reporter) (dsDNA)
DNA 1: AATTTGTCGAT
DNA 2: ATCGACAAATT
For B2, the activity with GUN1-VP64 [2] turned out to be 3.15 fold activation.

B3: pTac2 target (4x in reporter) (dsDNA)
DNA 1: AACTTTCGTCACTCA
DNA 2: TGAGTGACGAAAGTT
B3 came in with an activity with pTac2-VP64 [3] of 2.91 fold activation.

B4: pTac2 target (8x in reporter) (dsDNA)
DNA 1: AACTTTCGTCACTCA
DNA 2: TGAGTGACGAAAGTT
In the series with pTac2-VP64 [4], B4 came in with an activity of 4.81 fold activation.
